According to the supplement of paper PMC10567573:

B1: TSN (parent)
chain: FLAAEQDIREEIRKVVQSLEQTAR
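Further: lentivirally expressed fusions sorted by FACS into six bins by GFP to DsRed ratio, PSI derived from sequencing read proportions per bin multiplied by bin number.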

Variants of: B1
Experiment: protein stability index of a GFP-peptide fusion (GPS, HEK-293T) (PSI 1-6); higher = more stable
Details: c terminus: a fixed tail appended
In the case of Q6V, the protein stability index is reported as 1.79.
Variant Q6Y has a protein stability index of 2.09.
Variant Q6S has a protein stability index of 2.25.
In the case of Q6G, the protein stability index is reported as 1.84.
For Q6W, the protein stability index was 2.75.
Work on Q6N yielded a protein stability index of 1.91.
Variant Q6H has a protein stability index of 1.63.
With Q6D the protein stability index was 1.85.
For Q6I, the protein stability index was 2.1.
Work on Q6C yielded a protein stability index of 1.65.
Work on Q6P yielded a protein stability index of 2.85.
Q6E gave a protein stability index of 2.85.
For Q6L, the protein stability index was 1.99.
Work on Q6R yielded a protein stability index of 2.53.
With Q6A the protein stability index was 2.01.
For Q6M, the protein stability index was 1.86.
Q6K showed a protein stability index of 1.78.
Q6F showed a protein stability index of 1.87.
For Q6T, the protein stability index was 1.46.
Variant A3Y has a protein stability index of 2.03.
D7S gave a protein stability index of 1.79.
Work on D7V yielded a protein stability index of 2.13.
In the case of D7N, the protein stability index is reported as 2.05.
Variant D7R has a protein stability index of 2.35.
D7G gave a protein stability index of 2.22.
Variant D7C has a protein stability index of 2.28.
Variant D7F has a protein stability index of 2.52.
For D7K, the protein stability index was 1.51.
With D7T the protein stability index was 1.75.
Variant D7M has a protein stability index of 1.73.
For D7I, the protein stability index was 2.93.
In the case of D7Q, the protein stability index is reported as 1.3.
D7A showed a protein stability index of 2.18.
For D7Y, the protein stability index was 2.44.
With D7E the protein stability index was 1.89.
With D7W the protein stability index was 2.21.
D7H gave a protein stability index of 2.78.
D7L showed a protein stability index of 3.27.
In the case of D7P, the protein stability index is reported as 2.22.
With E5I the protein stability index was 2.81.
E5C gave a protein stability index of 2.25.
In the case of E5H, the protein stability index is reported as 2.26.
E5Y showed a protein stability index of 1.76.
Work on E5R yielded a protein stability index of 2.66.
Work on E5N yielded a protein stability index of 3.04.
E5S showed a protein stability index of 2.52.
For E5T, the protein stability index was 3.32.
Variant E5P has a protein stability index of 3.
Variant E5Q has a protein stability index of 2.71.
Variant E5W has a protein stability index of 2.58.
E5D gave a protein stability index of 2.27.
E5M gave a protein stability index of 2.79.
Work on E5V yielded a protein stability index of 3.62.
In the case of E5F, the protein stability index is reported as 2.5.
Work on E5L yielded a protein stability index of 3.1.
With E5A the protein stability index was 2.69.
E5G showed a protein stability index of 2.87.
With A4P the protein stability index was 2.01.
With A4M the protein stability index was 1.69.
For A4L, the protein stability index was 2.29.
A4D showed a protein stability index of 2.11.
For A4G, the protein stability index was 2.04.
In the case of A4V, the protein stability index is reported as 1.93.
In the case of A4E, the protein stability index is reported as 2.51.
In the case of A4S, the protein stability index is reported as 2.54.
Work on A4F yielded a protein stability index of 2.71.
A4H gave a protein stability index of 1.57.
In the case of A4R, the protein stability index is reported as 1.73.
For A4K, the protein stability index was 1.71.
For A4T, the protein stability index was 2.13.
Work on A4Q yielded a protein stability index of 2.09.
In the case of A4N, the protein stability index is reported as 1.52.
In the case of A4I, the protein stability index is reported as 2.08.
Work on A4Y yielded a protein stability index of 2.03.
Work on R9F yielded a protein stability index of 2.4.
In the case of R9W, the protein stability index is reported as 1.64.
R9G showed a protein stability index of 3.12.
Variant R9E has a protein stability index of 1.69.
In the case of R9T, the protein stability index is reported as 2.06.
For R9A, the protein stability index was 1.48.
With R9D the protein stability index was 2.31.
For R9C, the protein stability index was 1.43.
R9H gave a protein stability index of 1.49.
In the case of R9Y, the protein stability index is reported as 2.29.
In the case of R9K, the protein stability index is reported as 2.69.
For R9M, the protein stability index was 2.11.
In the case of R9Q, the protein stability index is reported as 2.04.
Work on R9S yielded a protein stability index of 2.26.
Variant R9L has a protein stability index of 2.26.
Work on R9I yielded a protein stability index of 1.84.
Work on R9V yielded a protein stability index of 1.75.
Variant R9P has a protein stability index of 3.1.
Variant R9N has a protein stability index of 2.28.
Work on E11P yielded a protein stability index of 3.15.
In the case of E11I, the protein stability index is reported as 1.72.
E11M gave a protein stability index of 1.9.
For E11N, the protein stability index was 3.58.
With E11F the protein stability index was 1.59.
With E11H the protein stability index was 2.58.
With E11Q the protein stability index was 2.29.
E11S gave a protein stability index of 2.47.
E11K gave a protein stability index of 2.65.
In the case of E11R, the protein stability index is reported as 2.89.
In the case of E11C, the protein stability index is reported as 2.21.
For E11W, the protein stability index was 1.59.
In the case of E11L, the protein stability index is reported as 2.19.
For E11A, the protein stability index was 2.02.
Variant E11T has a protein stability index of 2.43.
E11D gave a protein stability index of 2.77.
With E11V the protein stability index was 1.95.
With E11G the protein stability index was 2.68.
With E11Y the protein stability index was 1.76.
I8W showed a protein stability index of 2.65.
With I8N the protein stability index was 4.12.
Work on I8S yielded a protein stability index of 3.33.
For I8Y, the protein stability index was 2.42.
For I8E, the protein stability index was 3.64.
For I8V, the protein stability index was 2.17.
I8Q showed a protein stability index of 3.16.
With I8D the protein stability index was 3.44.
Work on I8C yielded a protein stability index of 2.56.
I8K gave a protein stability index of 2.56.
In the case of I8M, the protein stability index is reported as 1.73.
With I8G the protein stability index was 4.12.
Variant I8T has a protein stability index of 2.78.
Variant I8P has a protein stability index of 3.41.
Work on I8F yielded a protein stability index of 2.57.
Work on I8H yielded a protein stability index of 3.17.
I8L gave a protein stability index of 2.02.
For I8R, the protein stability index was 3.15.
For I8A, the protein stability index was 3.02.
Work on I12S yielded a protein stability index of 2.59.
For I12Q, the protein stability index was 4.06.
I12K gave a protein stability index of 3.98.
I12N gave a protein stability index of 4.68.
Work on I12F yielded a protein stability index of 2.89.
I12L showed a protein stability index of 2.63.
Variant I12M has a protein stability index of 1.94.
Variant I12C has a protein stability index of 1.58.
In the case of I12A, the protein stability index is reported as 2.32.
With I12V the protein stability index was 2.1.
For I12P, the protein stability index was 4.45.
I12T showed a protein stability index of 3.07.
I12G showed a protein stability index of 3.81.
In the case of I12D, the protein stability index is reported as 4.64.
I12H showed a protein stability index of 4.29.
Work on I12E yielded a protein stability index of 4.52.
Variant I12R has a protein stability index of 4.3.
Variant E10Q has a protein stability index of 1.85.
E10V gave a protein stability index of 2.39.
E10I showed a protein stability index of 1.53.
For E10A, the protein stability index was 2.11.
Work on E10G yielded a protein stability index of 2.92.
In the case of E10L, the protein stability index is reported as 1.96.
For E10P, the protein stability index was 3.21.
Work on E10D yielded a protein stability index of 1.63.
E10R gave a protein stability index of 2.06.
Work on E10S yielded a protein stability index of 2.33.
In the case of E10T, the protein stability index is reported as 2.83.
E10M gave a protein stability index of 1.88.
With E10H the protein stability index was 2.5.
With E10F the protein stability index was 1.35.
With E10N the protein stability index was 2.12.
E10C showed a protein stability index of 2.47.
E10W showed a protein stability index of 2.08.
E10K gave a protein stability index of 2.15.
For E10Y, the protein stability index was 1.96.
